According to paper PMC10397247:
Like-named read-outs stand apart in the source and are kept apart here.

Legend:
[1] = molecular target: T1, 4H3049-AA; assay: two-hybrid library CCmax; conditions: mean of both orientations;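 note: natural log of median RNA to DNA barcode read ratio; higher means stronger binding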
T1 chain: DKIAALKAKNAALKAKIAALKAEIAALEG

[2] = molecular target: T2, 4H63-AA; assay: two-hybrid library CCmax; conditions: mean of both orientations;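 note: natural log of median RNA to DNA barcode read ratio; higher means stronger binding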
T2 chain: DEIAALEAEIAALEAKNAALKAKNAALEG

[3] = molecular target: T3, 4H483-AA; assay: two-hybrid library CCmax; conditions: mean of both orientations;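 note: natural log of median RNA to DNA barcode read ratio; higher means stronger binding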
T3 chain: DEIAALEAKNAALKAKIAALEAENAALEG

[4] = molecular target: T4, 4H3414-AA; assay: two-hybrid library CCmax; conditions: mean of both orientations;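 note: natural log of median RNA to DNA barcode read ratio; higher means stronger binding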
T4 chain: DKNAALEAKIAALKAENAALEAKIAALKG

[5] = molecular target: T5, 4H2774-AA; assay: two-hybrid library CCmax; conditions: mean of both orientations;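 note: natural log of median RNA to DNA barcode read ratio; higher means stronger binding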
T5 chain: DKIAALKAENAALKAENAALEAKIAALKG

[6] = molecular target: T6, 4H2699-AA; assay: two-hybrid library CCmax;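 note: natural log of median RNA to DNA barcode read ratio; higher means stronger binding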
T6 chain: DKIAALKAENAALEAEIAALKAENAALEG

[7] = molecular target: T7, 4H380-AA; assay: two-hybrid library CCmax; conditions: mean of both orientations
T7 chain: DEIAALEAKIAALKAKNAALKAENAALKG

[8] = molecular target: T8, 4H2961-AA; assay: two-hybrid library CCmax; conditions: mean of both orientations
T8 chain: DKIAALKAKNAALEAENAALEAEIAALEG

[9] = molecular target: T9, 4H3595-AA; assay: two-hybrid library CCmax; conditions: mean of both orientations
T9 chain: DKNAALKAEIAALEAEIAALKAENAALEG

[10] = molecular target: T10, 4H341-AA; assay: two-hybrid library CCmax; conditions: mean of both orientations
T10 chain: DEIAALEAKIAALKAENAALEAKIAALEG

[11] = molecular target: T11, 4H3939-AA; assay: two-hybrid library CCmax; conditions: mean of both orientations
T11 chain: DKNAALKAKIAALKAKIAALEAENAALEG

[12] = molecular target: T12, 4H3629-AA; assay: two-hybrid library CCmax; conditions: mean of both orientations
T12 chain: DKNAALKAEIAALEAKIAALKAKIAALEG

[13] = molecular target: T13, 4H3129-AA; assay: two-hybrid library CCmax
T13 chain: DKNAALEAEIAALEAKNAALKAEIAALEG

[14] = molecular target: T14, 4H3969-AA; assay: two-hybrid library CCmax; conditions: mean of both orientations
T14 chain: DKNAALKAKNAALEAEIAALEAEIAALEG

[15] = molecular target: T15, 4H464-AA; assay: two-hybrid library CCmax; conditions: mean of both orientations
T15 chain: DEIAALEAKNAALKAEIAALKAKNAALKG

[16] = molecular target: T16, 4H446-AA; assay: two-hybrid library CCmax; conditions: mean of both orientations
T16 chain: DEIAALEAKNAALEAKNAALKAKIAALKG

[17] = molecular target: T17, 4H3782-AA; assay: two-hybrid library CCmax; conditions: mean of both orientations
T17 chain: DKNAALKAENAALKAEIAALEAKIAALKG

[18] = molecular target: T18, 4H2903-AA; assay: two-hybrid library CCmax; conditions: mean of both orientations
T18 chain: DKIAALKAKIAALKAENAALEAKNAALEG

[19] = molecular target: T19, 4H2728-AA; assay: two-hybrid library CCmax; conditions: mean of both orientations
T19 chain: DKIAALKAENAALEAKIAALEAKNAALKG

[20] = molecular target: T20, 4H3974-AA; assay: two-hybrid library CCmax; conditions: mean of both orientations
T20 chain: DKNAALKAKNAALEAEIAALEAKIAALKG

[21] = molecular target: T21, 4H3777-AA; assay: two-hybrid library CCmax; conditions: mean of both orientations
T21 chain: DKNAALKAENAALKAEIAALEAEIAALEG

[22] = molecular target: T22, 4H2760-AA; assay: two-hybrid library CCmax; conditions: mean of both orientations
T22 chain: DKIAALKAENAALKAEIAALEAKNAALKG

[23] = molecular target: T23, 4H432-AA; assay: two-hybrid library CCmax; conditions: mean of both orientations
T23 chain: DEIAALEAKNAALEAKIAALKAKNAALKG

[24] = molecular target: T24, 4H3619-AA; assay: two-hybrid library CCmax; conditions: mean of both orientations
T24 chain: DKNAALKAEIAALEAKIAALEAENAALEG

[25] = molecular target: T25, 4H2621-AA; assay: two-hybrid library CCmax
T25 chain: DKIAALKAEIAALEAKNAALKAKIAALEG

[26] = molecular target: T26, 4H2947-AA; assay: two-hybrid library CCmax; conditions: mean of both orientations
T26 chain: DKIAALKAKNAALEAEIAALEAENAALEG

[27] = molecular target: T27, 4H2580-AA; assay: two-hybrid library CCmax
T27 chain: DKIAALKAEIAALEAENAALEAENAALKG

[28] = molecular target: T28, 4H2604-AA; assay: two-hybrid library CCmax; conditions: mean of both orientations
T28 chain: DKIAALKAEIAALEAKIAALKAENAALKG

[29] = molecular target: T29, 4H3915-AA; assay: two-hybrid library CCmax; conditions: mean of both orientations
T29 chain: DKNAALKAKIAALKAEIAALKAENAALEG

[30] = molecular target: T30, 4H3094-AA; assay: two-hybrid library CCmax; conditions: mean of both orientations
T30 chain: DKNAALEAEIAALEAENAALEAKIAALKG

[31] = molecular target: T31, 4H324-AA; assay: two-hybrid library CCmax; conditions: mean of both orientations
T31 chain: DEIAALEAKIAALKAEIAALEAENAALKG

[32] = molecular target: T32, 4H3449-AA; assay: two-hybrid library CCmax; conditions: mean of both orientations
T32 chain: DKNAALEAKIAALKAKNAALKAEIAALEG

[33] = molecular target: T33, 4H3631-bN; assay: two-hybrid library CCNG1
T33 chain: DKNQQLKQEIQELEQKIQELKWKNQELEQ

[34] = molecular target: T34, 4H3817-bN; assay: two-hybrid library CCNG1
T34 chain: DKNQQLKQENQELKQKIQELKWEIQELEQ

[35] = molecular target: T35, 4H3414-bN; assay: two-hybrid library CCNG1
T35 chain: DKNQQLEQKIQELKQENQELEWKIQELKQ

[36] = molecular target: T36, 4H570-bN; assay: two-hybrid library CCNG1
T36 chain: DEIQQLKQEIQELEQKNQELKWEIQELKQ

[37] = molecular target: T37, 4H584-bN; assay: two-hybrid library CCNG1
T37 chain: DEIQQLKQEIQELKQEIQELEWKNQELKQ

[38] = molecular target: T38, 4H3638-bN; assay: two-hybrid library CCNG1
T38 chain: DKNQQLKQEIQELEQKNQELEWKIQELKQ

[39] = molecular target: T39, 4H3974-bN; assay: two-hybrid library CCNG1
T39 chain: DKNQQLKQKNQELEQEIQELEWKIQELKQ

[40] = molecular target: T40, 4H906-bN; assay: two-hybrid library CCNG1
T40 chain: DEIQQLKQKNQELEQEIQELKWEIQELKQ

[41] = molecular target: T41, 4H619-bN; assay: two-hybrid library CCNG1
T41 chain: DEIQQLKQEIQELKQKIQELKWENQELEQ

[42] = molecular target: T42, 4H850-bN; assay: two-hybrid library CCNG1
T42 chain: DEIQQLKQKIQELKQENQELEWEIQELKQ

[43] = molecular target: T43, P8mS; assay: two-hybrid library CC1; conditions: mean of both orientations
T43 chain: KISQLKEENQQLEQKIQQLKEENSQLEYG

[44] = molecular target: T44, P6; assay: two-hybrid library CC1
T44 chain: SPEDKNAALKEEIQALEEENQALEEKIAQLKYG

[45] = molecular target: T45, P6mS; assay: two-hybrid library CC1; conditions: mean of both orientations
T45 chain: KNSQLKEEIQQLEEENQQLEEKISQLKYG

[46] = molecular target: T46, P7mS; assay: two-hybrid library CC1; conditions: mean of both orientations
T46 chain: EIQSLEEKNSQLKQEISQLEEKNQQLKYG

[47] = molecular target: T47, P6SC1; assay: two-hybrid library CC1; conditions: mean of both orientations
T47 chain: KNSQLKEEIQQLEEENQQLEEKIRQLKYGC

[48] = molecular target: T48, P9; assay: two-hybrid library CC1; conditions: mean of both orientations
T48 chain: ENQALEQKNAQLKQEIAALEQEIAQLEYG

[49] = molecular target: T49, P8; assay: two-hybrid library CC1; conditions: mean of both orientations
T49 chain: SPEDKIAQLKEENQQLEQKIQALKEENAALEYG

[50] = molecular target: T50, P6SC2; assay: two-hybrid library CC1; conditions: mean of both orientations
T50 chain: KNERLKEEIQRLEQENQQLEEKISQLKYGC

[51] = molecular target: T51, P7; assay: two-hybrid library CC1; conditions: mean of both orientations
T51 chain: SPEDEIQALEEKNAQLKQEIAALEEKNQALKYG

Row | Binder | interaction score [1] | interaction score [2] | interaction score [3] | interaction score [4] | interaction score [5] | interaction score [7] | interaction score [8] | interaction score [9] | interaction score [10] | interaction score [11] | interaction score [12] | interaction score ([13]; mean of both orientations) | interaction score [14] | interaction score [15] | interaction score [16] | interaction score [17] | interaction score [18] | interaction score [19] | interaction score [20] | interaction score [21] | also measured
1 | DKIAALKAENAALEAEIAALKAENAALEG [4H2699-AA] | 0.526 | -1.27 | 0.687 | -0.748 | -1.26 | -1.08 | -1.89 | -1.96 | -1.58 | -1.77 | -0.9 | 1.24 | -1.41 | 2.17 | -1.2 | -0.882 | -1.69 | -0.707 | – | – | interaction score [6]: -1.06
2 | DKIAALKAEIAALEAENAALEAENAALKG [4H2580-AA] | -0.107 | 0.964 | -1.33 | -1.09 | -1.28 | 1.77 | -1.82 | -1.29 | 0.477 | -0.303 | -0.787 | -1.21 | -1.28 | -0.738 | -1.11 | -1.52 | -0.221 | -1.69 | -1.2 | -1.49 | interaction score ([6]; mean of both orientations): -1.81; interaction score [22]: -1.47; interaction score [23]: -1.04; interaction score [24]: -1.26; interaction score ([25]; mean of both orientations): -0.357; interaction score [26]: -1.82; interaction score [27]: 0.179; interaction score [28]: 1.41; interaction score [29]: -0.741; interaction score [30]: -1.36; interaction score [31]: 1.93; interaction score [32]: 0.308
3 | DKIAALKAEIAALEAKNAALKAKIAALEG [4H2621-AA] | 0.214 | -0.787 | -1.55 | 2.21 | -0.116 | -0.998 | -0.217 | 0.312 | 2.39 | -0.531 | 0.71 | – | -1.35 | -1.44 | -1.41 | -1.63 | 1.71 | 1.6 | -0.826 | -1.64 | interaction score ([6]; mean of both orientations): -0.173; interaction score [22]: -0.432; interaction score [23]: -1.5; interaction score [24]: 0.162; interaction score [25]: 1.1; interaction score [26]: -1.47; interaction score [13]: -1.64; interaction score [29]: -1.18; interaction score [30]: 1.09; interaction score [31]: 1.33; interaction score [32]: -0.832
4 | DKNQQLEQKIQELKQENQELEWKIQELKQ [4H3414-bN] | – | – | – | – | – | – | – | – | – | – | – | – | – | – | – | – | – | – | – | – | interaction score [33]: -1.25; interaction score [34]: -0.982; interaction score [35]: -0.0983; interaction score [36]: -0.223; interaction score [37]: -1.04; interaction score [38]: -1.41; interaction score [39]: -0.178; interaction score [40]: -1.04; interaction score [41]: -2.07; interaction score [42]: 0.132
5 | SPEDKNAALKEEIQALEEENQALEEKIAQLKYG [P6] | – | – | – | – | – | – | – | – | – | – | – | – | – | – | – | – | – | – | – | – | interaction score [43]: -2.62; interaction score [44]: -2.71; interaction score [45]: -2.76; interaction score [46]: -2.6; interaction score [47]: -2.74; interaction score [48]: -1.98; interaction score [49]: -2.37; interaction score [50]: -2.56; interaction score [51]: -0.929
